Test results taken from publication PMC8105673.

Biological target: scavenger receptor CD36 (human (endogenous in THP-1)) (UniProt P16671)
Assay: flow cytometry on cells; THP-1-derived M1 macrophages pre-incubated with 50 μM HSAUT, HSA_(HOCl) or buffer for 15 min at 0 °C (surface binding, no internalization), then stained with a PE-conjugated anti-CD36 blocking antibody; binding of HSA read indirectly as loss of antibody staining

Sequence of UniProt P16671 (P16671 whole entry): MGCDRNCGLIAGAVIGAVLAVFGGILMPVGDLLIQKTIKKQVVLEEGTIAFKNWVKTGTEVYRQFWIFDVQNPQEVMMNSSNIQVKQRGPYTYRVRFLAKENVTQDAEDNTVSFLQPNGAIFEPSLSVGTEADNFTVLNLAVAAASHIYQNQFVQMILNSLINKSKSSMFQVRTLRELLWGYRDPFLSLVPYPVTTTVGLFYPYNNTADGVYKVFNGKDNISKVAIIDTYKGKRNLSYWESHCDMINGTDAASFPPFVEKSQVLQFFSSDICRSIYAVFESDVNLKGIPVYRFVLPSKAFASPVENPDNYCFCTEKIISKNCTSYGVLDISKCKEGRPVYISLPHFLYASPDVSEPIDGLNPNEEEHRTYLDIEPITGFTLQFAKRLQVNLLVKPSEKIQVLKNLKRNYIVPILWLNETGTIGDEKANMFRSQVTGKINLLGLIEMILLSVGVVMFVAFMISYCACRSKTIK

reduction of the binding of anti-CD36 antibody to the cells: 30%
Substance: HOCl-modified human serum albumin (from UniProt P02768 25-609) (natural protein)
